Assay results: paper PMC2654718 (Biochemistry, 2009)
Ends that are not written are not given here.

target: MBP-VDR-LBDmt (human); experiment: fluorescence polarisation

Row | Binder | Kd [µM]
1 | C(Texas Red maleimide)KVSQNPILTSLLQITGNGG [DRIP205-1 peptide, Texas Red labeled] | > 20
2 | C(Texas Red maleimide)AASKHKQLSELLRSGSSPN [P300 peptide, Texas Red labeled] | > 20
3 | C(Texas Red maleimide)QAANNSLLLHLLKSQTIPK [RIP140-5 peptide, Texas Red labeled] | < 20
